Measured values: the supplement of paper PMC9112550, “Optimization of the antimicrobial peptide Bac7 by deep mutational scanning” (BMC Biology, 2022)

What follows are sequences tested on Escherichia coli TOP10 (assay: shrunken log2 fold change of peptide-encoding DNA abundance (4.5 h post-induction vs induction); higher = less antimicrobial activity (less host growth inhibition)). Conditions: time post-induction: 4.5 h; library: site-saturation at positions 5, 18, 19, 20.
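Also: peptides expressed intracellularly from a pBAD plasmid library in pooled LB shake-flask culture, induced with 0.3% L-arabinose, DNA abundance read by NGS, three biological replicates, DESeq2 with apeglm shrinkage.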

Question: For RRIRIRPPRLPRPRPRPPTNPRP, which “shrunken log2 fold change” value is on record?
Answer: Its value is 0.0455.

Question: How did the “shrunken log2 fold change” value turn out when RRIRIRPPRLPRPRPRPPTVPRP was run?
Answer: Its value is -0.155.

Question: Which “shrunken log2 fold change” value does the source give for RRIRIRPPRLPRPRPRPPYNPRP here?
Answer: The value was -0.854.

Question: For RRIRIRPPRLPRPRPRPQARPRP, which “shrunken log2 fold change” value is on record?
Answer: The value was -0.115.

Question: For RRIRIRPPRLPRPRPRPQAWPRP, which “shrunken log2 fold change” value is on record?
Answer: Its value is 0.386.

Question: For RRIRIRPPRLPRPRPRPQCSPRP, which “shrunken log2 fold change” value is on record?
Answer: The value was -0.46.

Question: How did the “shrunken log2 fold change” value turn out when RRIRIRPPRLPRPRPRPQDDPRP was run?
Answer: The value was 0.0213.

Question: For RRIRIRPPRLPRPRPRPQEMPRP, which “shrunken log2 fold change” value is on record?
Answer: The value was -0.379.

Question: How did the “shrunken log2 fold change” value turn out when RRIRIRPPRLPRPRPRPQETPRP was run?
Answer: Its value is -0.0344.

Question: For RRIRIRPPRLPRPRPRPQEYPRP, which “shrunken log2 fold change” value is on record?
Answer: Its value is -0.312.

Question: How did the “shrunken log2 fold change” value turn out when RRIRIRPPRLPRPRPRPQFHPRP was run?
Answer: The value was -1.12.

Question: For RRIRIRPPRLPRPRPRPQGDPRP, which “shrunken log2 fold change” value is on record?
Answer: The value was 0.0169.

Question: RRIRIRPPRLPRPRPRPQGNPRP was tested. Which “shrunken log2 fold change” value did it give?
Answer: Its value is -0.304.

Question: With RRIRIRPPRLPRPRPRPQHFPRP as the sequence, how does the “shrunken log2 fold change” value read?
Answer: Its value is -0.109.

Question: RRIRIRPPRLPRPRPRPQIFPRP was tested. Which “shrunken log2 fold change” value did it give?
Answer: The value was 0.0997.

Question: For RRIRIRPPRLPRPRPRPQITPRP, which “shrunken log2 fold change” value is on record?
Answer: Its value is -1.22.

Question: With RRIRIRPPRLPRPRPRPQIWPRP as the sequence, how does the “shrunken log2 fold change” value read?
Answer: The value was -0.174.

Question: For RRIRIRPPRLPRPRPRPQLIPRP, which “shrunken log2 fold change” value is on record?
Answer: The value was -0.146.

Question: Which “shrunken log2 fold change” value does the source give for RRIRIRPPRLPRPRPRPQLKPRP here?
Answer: The value was -0.456.

Question: With RRIRIRPPRLPRPRPRPQLYPRP as the sequence, how does the “shrunken log2 fold change” value read?
Answer: Its value is -0.303.

Question: For RRIRIRPPRLPRPRPRPQMLPRP, which “shrunken log2 fold change” value is on record?
Answer: Its value is -0.633.

Question: How did the “shrunken log2 fold change” value turn out when RRIRIRPPRLPRPRPRPQMRPRP was run?
Answer: The value was 0.0729.

Question: For RRIRIRPPRLPRPRPRPQPQPRP, which “shrunken log2 fold change” value is on record?
Answer: Its value is 0.0386.

Question: RRIRIRPPRLPRPRPRPQQAPRP was tested. Which “shrunken log2 fold change” value did it give?
Answer: Its value is 0.0151.

Question: RRIRIRPPRLPRPRPRPQQQPRP was tested. Which “shrunken log2 fold change” value did it give?
Answer: The value was -0.061.

Question: How did the “shrunken log2 fold change” value turn out when RRIRIRPPRLPRPRPRPQQVPRP was run?
Answer: The value was 0.00944.

Question: RRIRIRPPRLPRPRPRPQSEPRP was tested. Which “shrunken log2 fold change” value did it give?
Answer: The value was -0.219.

Question: With RRIRIRPPRLPRPRPRPQSNPRP as the sequence, how does the “shrunken log2 fold change” value read?
Answer: Its value is -0.197.

Question: Which “shrunken log2 fold change” value does the source give for RRIRIRPPRLPRPRPRPQTGPRP here?
Answer: The value was -0.139.

Question: Which “shrunken log2 fold change” value does the source give for RRIRIRPPRLPRPRPRPQTRPRP here?
Answer: The value was -0.196.

Question: With RRIRIRPPRLPRPRPRPQVCPRP as the sequence, how does the “shrunken log2 fold change” value read?
Answer: The value was 0.0108.

Question: Which “shrunken log2 fold change” value does the source give for RRIRIRPPRLPRPRPRPQVDPRP here?
Answer: The value was 0.0508.

Question: With RRIRIRPPRLPRPRPRPQVTPRP as the sequence, how does the “shrunken log2 fold change” value read?
Answer: The value was -0.4.

Question: Which “shrunken log2 fold change” value does the source give for RRIRIRPPRLPRPRPRPQWSPRP here?
Answer: The value was -0.618.

Question: How did the “shrunken log2 fold change” value turn out when RRIRIRPPRLPRPRPRPQYDPRP was run?
Answer: Its value is -0.043.

Question: Which “shrunken log2 fold change” value does the source give for RRIRIRPPRLPRPRPRPRDEPRP here?
Answer: Its value is 0.27.

Question: RRIRIRPPRLPRPRPRPREGPRP was tested. Which “shrunken log2 fold change” value did it give?
Answer: The value was 0.229.

Question: RRIRIRPPRLPRPRPRPRERPRP was tested. Which “shrunken log2 fold change” value did it give?
Answer: Its value is 0.688.

Question: Which “shrunken log2 fold change” value does the source give for RRIRIRPPRLPRPRPRPRFHPRP here?
Answer: The value was -0.42.

Question: Which “shrunken log2 fold change” value does the source give for RRIRIRPPRLPRPRPRPRGIPRP here?
Answer: Its value is -0.0459.

Question: Which “shrunken log2 fold change” value does the source give for RRIRIRPPRLPRPRPRPRGNPRP here?
Answer: The value was -0.0419.

Question: How did the “shrunken log2 fold change” value turn out when RRIRIRPPRLPRPRPRPRIIPRP was run?
Answer: Its value is -0.199.

Question: With RRIRIRPPRLPRPRPRPRIMPRP as the sequence, how does the “shrunken log2 fold change” value read?
Answer: Its value is -0.537.

Question: Which “shrunken log2 fold change” value does the source give for RRIRIRPPRLPRPRPRPRLVPRP here?
Answer: Its value is 0.22.

Question: How did the “shrunken log2 fold change” value turn out when RRIRIRPPRLPRPRPRPRMMPRP was run?
Answer: Its value is -0.293.

Question: RRIRIRPPRLPRPRPRPRNAPRP was tested. Which “shrunken log2 fold change” value did it give?
Answer: The value was 0.0687.

Question: RRIRIRPPRLPRPRPRPRPTPRP was tested. Which “shrunken log2 fold change” value did it give?
Answer: The value was 0.152.

Question: How did the “shrunken log2 fold change” value turn out when RRIRIRPPRLPRPRPRPRSAPRP was run?
Answer: Its value is 0.0737.

Question: RRIRIRPPRLPRPRPRPRSIPRP was tested. Which “shrunken log2 fold change” value did it give?
Answer: Its value is 0.0721.

Question: RRIRIRPPRLPRPRPRPRSKPRP was tested. Which “shrunken log2 fold change” value did it give?
Answer: The value was -0.251.

Question: With RRIRIRPPRLPRPRPRPRSSPRP as the sequence, how does the “shrunken log2 fold change” value read?
Answer: Its value is 0.152.

Question: With RRIRIRPPRLPRPRPRPRTHPRP as the sequence, how does the “shrunken log2 fold change” value read?
Answer: Its value is -0.372.

Question: Which “shrunken log2 fold change” value does the source give for RRIRIRPPRLPRPRPRPRTTPRP here?
Answer: The value was -0.25.

Question: For RRIRIRPPRLPRPRPRPRVEPRP, which “shrunken log2 fold change” value is on record?
Answer: Its value is -0.0648.

Question: Which “shrunken log2 fold change” value does the source give for RRIRIRPPRLPRPRPRPRVMPRP here?
Answer: The value was 0.0377.

Question: How did the “shrunken log2 fold change” value turn out when RRIRIRPPRLPRPRPRPRWPPRP was run?
Answer: Its value is 0.379.

Question: How did the “shrunken log2 fold change” value turn out when RRIRIRPPRLPRPRPRPRWRPRP was run?
Answer: The value was 0.267.

Question: For RRIRIRPPRLPRPRPRPSATPRP, which “shrunken log2 fold change” value is on record?
Answer: The value was -0.17.

Question: Which “shrunken log2 fold change” value does the source give for RRIRIRPPRLPRPRPRPSAVPRP here?
Answer: The value was -0.306.

Question: With RRIRIRPPRLPRPRPRPSCCPRP as the sequence, how does the “shrunken log2 fold change” value read?
Answer: The value was -0.471.

Question: With RRIRIRPPRLPRPRPRPSCHPRP as the sequence, how does the “shrunken log2 fold change” value read?
Answer: The value was -0.243.

Question: RRIRIRPPRLPRPRPRPSDAPRP was tested. Which “shrunken log2 fold change” value did it give?
Answer: Its value is -0.0664.

Question: How did the “shrunken log2 fold change” value turn out when RRIRIRPPRLPRPRPRPSESPRP was run?
Answer: The value was -0.159.

Question: With RRIRIRPPRLPRPRPRPSETPRP as the sequence, how does the “shrunken log2 fold change” value read?
Answer: Its value is -0.297.

Question: For RRIRIRPPRLPRPRPRPSGFPRP, which “shrunken log2 fold change” value is on record?
Answer: The value was -0.175.

Question: For RRIRIRPPRLPRPRPRPSHPPRP, which “shrunken log2 fold change” value is on record?
Answer: Its value is -0.245.

Question: Which “shrunken log2 fold change” value does the source give for RRIRIRPPRLPRPRPRPSHQPRP here?
Answer: The value was 0.0866.

Question: How did the “shrunken log2 fold change” value turn out when RRIRIRPPRLPRPRPRPSITPRP was run?
Answer: The value was 0.141.

Question: Which “shrunken log2 fold change” value does the source give for RRIRIRPPRLPRPRPRPSKKPRP here?
Answer: Its value is -0.229.

Question: Which “shrunken log2 fold change” value does the source give for RRIRIRPPRLPRPRPRPSLAPRP here?
Answer: Its value is 0.0113.

Question: Which “shrunken log2 fold change” value does the source give for RRIRIRPPRLPRPRPRPSLIPRP here?
Answer: The value was -0.604.

Question: How did the “shrunken log2 fold change” value turn out when RRIRIRPPRLPRPRPRPSMYPRP was run?
Answer: Its value is -1.53.

Question: For RRIRIRPPRLPRPRPRPSNDPRP, which “shrunken log2 fold change” value is on record?
Answer: Its value is -0.779.

Question: How did the “shrunken log2 fold change” value turn out when RRIRIRPPRLPRPRPRPSPFPRP was run?
Answer: The value was -0.81.

Question: For RRIRIRPPRLPRPRPRPSQIPRP, which “shrunken log2 fold change” value is on record?
Answer: Its value is -0.142.
